{
  "source": "patent US20210316007A1",
  "about": "(DUKE UNIVERSITY, published 2021)",
  "key": {"mouse serum albumin [1]": {"molecular_target": "T1, mouse serum albumin (mouse, UniProt P07724 25-608)", "T1 construct": "also called MSA; mouse albumin", "T1 sequence (P07724 25-608 limits assumed)": "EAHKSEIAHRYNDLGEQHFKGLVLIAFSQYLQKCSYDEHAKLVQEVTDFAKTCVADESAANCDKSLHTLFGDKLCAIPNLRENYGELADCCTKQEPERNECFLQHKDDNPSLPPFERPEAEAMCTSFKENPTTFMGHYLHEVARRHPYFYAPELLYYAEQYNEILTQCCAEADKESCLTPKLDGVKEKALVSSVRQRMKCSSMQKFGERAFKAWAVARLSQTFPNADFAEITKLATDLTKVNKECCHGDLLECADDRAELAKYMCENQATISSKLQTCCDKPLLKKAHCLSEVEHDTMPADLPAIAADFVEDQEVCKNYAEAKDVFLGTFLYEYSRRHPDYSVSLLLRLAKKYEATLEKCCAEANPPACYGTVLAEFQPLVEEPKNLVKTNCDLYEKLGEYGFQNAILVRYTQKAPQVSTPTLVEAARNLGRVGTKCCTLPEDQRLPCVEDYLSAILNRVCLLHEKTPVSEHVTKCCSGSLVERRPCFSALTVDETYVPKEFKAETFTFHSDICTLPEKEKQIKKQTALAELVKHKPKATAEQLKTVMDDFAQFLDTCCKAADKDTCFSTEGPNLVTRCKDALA", "test": "ITC, MSA titrated into CP-DOX micelles, PBS pH 7.4, 37 °C"}, "mouse serum albumin [2]": {"molecular_target": "T1, mouse serum albumin", "test": "ITC, MSA titrated into ELP, PBS pH 7.4, 37 °C; Example 2 ITC series (FIG. 4A), naked ELP control; weak µM best-fit KD that the text calls no specific affinity"}, "mouse serum albumin [3]": {"molecular_target": "T1, mouse serum albumin", "test": "ITC, MSA titrated into ELP, PBS pH 7.4, 37 °C; Example 2 ITC series (FIG. 4A), naked ELP control; fitted N with an error larger than the value"}, "human serum albumin [4]": {"molecular_target": "T2, human serum albumin (human, UniProt P02768 25-609)", "T2 construct": "also called HSA; human albumin", "test": "ITC, HSA titrated into ELP, PBS pH 7.4, 37 °C; Example 2 ITC series (FIG. 3A), naked ELP control"}, "mouse serum albumin [5]": {"molecular_target": "T1, mouse serum albumin", "test": "ITC (Nano ITC), albumin titrated into construct, PBS, 37 °C; PTX-example ITC series (Table 10), CP without ABD and without drug; µM fit"}, "human serum albumin [6]": {"molecular_target": "T2, human serum albumin", "test": "ITC, HSA titrated into ELP, PBS pH 7.4, 37 °C; Example 2 ITC series (FIG. 3A), naked ELP control; weak µM best-fit KD that the text calls no specific affinity"}, "mouse serum albumin [7]": {"molecular_target": "T1, mouse serum albumin", "test": "ITC, MSA titrated into ABDN-ELP, PBS pH 7.4, 37 °C", "procedure": "(§1) The experiments were performed in phosphate buffered saline (pH 7.4) at 37° C."}, "human serum albumin [8]": {"molecular_target": "T2, human serum albumin", "test": "ITC, HSA titrated into ABDN-ELP, PBS pH 7.4, 37 °C", "procedure": "as §1"}, "mouse serum albumin [9]": {"molecular_target": "T1, mouse serum albumin", "test": "ITC (Nano ITC), albumin titrated into construct, PBS, 37 °C"}, "human serum albumin [10]": {"molecular_target": "T2, human serum albumin", "test": "ITC (Nano ITC), albumin titrated into construct, PBS, 37 °C"}, "mouse serum albumin [11]": {"molecular_target": "T1, mouse serum albumin", "test": "ITC, MSA titrated into ABDH-ELP, PBS pH 7.4, 37 °C", "procedure": "as §1"}, "mouse serum albumin [12]": {"molecular_target": "T1, mouse serum albumin", "test": "ITC, MSA titrated into ABDH-CP-DOX micelles, PBS pH 7.4, 37 °C", "procedure": "as §1"}, "mouse serum albumin [13]": {"molecular_target": "T1, mouse serum albumin", "test": "ITC, MSA titrated into ABDN-CP-DOX micelles, PBS pH 7.4, 37 °C", "procedure": "as §1"}, "mouse serum albumin [14]": {"molecular_target": "T1, mouse serum albumin", "test": "ITC (Nano ITC), albumin titrated into micelles, PBS, 37 °C", "procedure": "(§2) For PTX conjugates, ITC was conducted using a Nano ITC system (TA Instruments, Utah, USA). […] For background correction, PBS (in the cell) was titrated with albumin (in the syringe) at the same concentrations and conditions. Background was subtracted from the final curves and the binding and thermodynamic parameters binding constant (KD), number of binding sites (n), and enthalpy (ΔH)—were computed by non-linear fitting to an independent-binding site model using TA Instruments NanoAnalyze software."}, "human serum albumin [15]": {"molecular_target": "T2, human serum albumin", "test": "ITC (Nano ITC), albumin titrated into micelles, PBS, 37 °C", "procedure": "as §2"}},
  "data": [
    {"molecule": "CP-DOX micelles (doxorubicin-conjugated chimeric polypeptide without ABD)", "values": [
      {"measurement": "Kd", "setting": "mouse serum albumin [1]", "value": 91900, "unit": "nM"},
      {"measurement": "binding stoichiometry N", "setting": "mouse serum albumin [1]", "value": 0.0386}
    ]},
    {"molecule": "ELP (naked elastin-like polypeptide with no ABD at its N-terminus)", "values": [
      {"measurement": "Kd", "setting": "mouse serum albumin [2]", "value": 71400, "unit": "nM"},
      {"measurement": "binding stoichiometry N", "setting": "mouse serum albumin [3]", "value": 0.152},
      {"measurement": "binding stoichiometry N", "setting": "human serum albumin [4]", "value": 0.75},
      {"measurement": "Kd", "setting": "mouse serum albumin [5]", "value": 3500, "unit": "nM"},
      {"measurement": "Kd", "setting": "human serum albumin [6]", "value": 69000, "unit": "nM"}
    ]},
    {"molecule": "ABDN-ELP (albumin binding domain N fused to the N-terminus of ELP) (designed binder, Unconjugated monomer, 68.5 kDa by SDS-PAGE; also called ABDN-CP; ABD-CP) LAEAKVLANRELDKYGVSDYYKNLINNAKTVEGVKALIDEILAALPVPGAGVPGAGVPGAGVPGAGVPGAGVPGAGVPGAGVPGAGVPGAGVPGAGVPGAGVPGAGVPGAGVPGAGVPGAGVPGAGVPGAGVPGAGVPGAGVPGAGVPGAGVPGAGVPGAGVPGAGVPGAGVPGAGVPGAGVPGAGVPGAGVPGAGVPGAGVPGAGVPGAGVPGAGVPGAGVPGAGVPGAGVPGAGVPGAGVPGAGVPGAGVPGAGVPGAGVPGAGVPGAGVPGAGVPGAGVPGAGVPGAGVPGAGVPGAGVPGAGVPGAGVPGAGVPGAGVPGAGVPGAGVPGAGVPGAGVPGAGVPGAGVPGAGVPGAGVPGAGVPGAGVPGAGVPGAGVPGAGVPGAGVPGAGVPGAGVPGAGVPGAGVPGAGVPGAGVPGAGVPGAGVPGAGVPGAGVPGAGVPGAGVPGAGVPGAGVPGAGVPGAGVPGAGVPGAGVPGAGVPGAGVPGAGVPGAGVPGAGVPGAGVPGAGVPGAGVPGAGVPGAGVPGAGVPGAGVPGAGVPGAGVPGAGVPGAGVPGAGVPGAGVPGAGVPGAGVPGAGVPGAGVPGAGVPGAGVPGAGVPGAGVPGAGVPGAGVPGAGVPGAGVPGAGVPGAGVPGAGVPGAGVPGAGVPGAGVPGAGVPGAGVPGAGVPGAGVPGAGVPGAGVPGAGVPGAGVPGAGVPGAGVPGAGVPGAGVPGAGVPGAGVPGAGVPGAGVPGAGVPGAGVPGAGVPGAGVPGAGVPGAGVPGAGCGGCGGCGGCGGCGGCGGCGGCGG", "values": [
      {"measurement": "Kd", "setting": "mouse serum albumin [7]", "value": 66.4, "unit": "nM"},
      {"measurement": "Kd", "setting": "human serum albumin [8]", "value": 48.4, "unit": "nM"},
      {"measurement": "Kd", "setting": "mouse serum albumin [9]", "value": 16.3, "unit": "nM"},
      {"measurement": "Kd", "setting": "human serum albumin [10]", "value": 6.47, "unit": "nM"}
    ]},
    {"molecule": "ABDH-ELP (albumin binding domain H, engineered variant of ABDN, fused to the N-terminus of ELP) (designed binder, Unconjugated monomer, 68.6 kDa by SDS-PAGE; also called ABDH-CP) LAEAKVLANRELDKYGVSDFYKRLINKAKTVEGVEALKLHILAALPVPGAGVPGAGVPGAGVPGAGVPGAGVPGAGVPGAGVPGAGVPGAGVPGAGVPGAGVPGAGVPGAGVPGAGVPGAGVPGAGVPGAGVPGAGVPGAGVPGAGVPGAGVPGAGVPGAGVPGAGVPGAGVPGAGVPGAGVPGAGVPGAGVPGAGVPGAGVPGAGVPGAGVPGAGVPGAGVPGAGVPGAGVPGAGVPGAGVPGAGVPGAGVPGAGVPGAGVPGAGVPGAGVPGAGVPGAGVPGAGVPGAGVPGAGVPGAGVPGAGVPGAGVPGAGVPGAGVPGAGVPGAGVPGAGVPGAGVPGAGVPGAGVPGAGVPGAGVPGAGVPGAGVPGAGVPGAGVPGAGVPGAGVPGAGVPGAGVPGAGVPGAGVPGAGVPGAGVPGAGVPGAGVPGAGVPGAGVPGAGVPGAGVPGAGVPGAGVPGAGVPGAGVPGAGVPGAGVPGAGVPGAGVPGAGVPGAGVPGAGVPGAGVPGAGVPGAGVPGAGVPGAGVPGAGVPGAGVPGAGVPGAGVPGAGVPGAGVPGAGVPGAGVPGAGVPGAGVPGAGVPGAGVPGAGVPGAGVPGAGVPGAGVPGAGVPGAGVPGAGVPGAGVPGAGVPGAGVPGAGVPGAGVPGAGVPGAGVPGAGVPGAGVPGAGVPGAGVPGAGVPGAGVPGAGVPGAGVPGAGVPGAGVPGAGVPGAGVPGAGVPGAGVPGAGVPGAGVPGAGVPGAGVPGAGVPGAGCGGCGGCGGCGGCGGCGGCGGCGG", "values": [
      {"measurement": "Kd", "setting": "mouse serum albumin [11]", "value": 5.19, "unit": "nM"}
    ]},
    {"molecule": "ABDH-CP-DOX micelles (doxorubicin-conjugated ABDH-chimeric polypeptide) (designed binder, Self-assembled micelle; aggregates at 37 °C without albumin) LAEAKVLANRELDKYGVSDFYKRLINKAKTVEGVEALKLHILAALPVPGAGVPGAGVPGAGVPGAGVPGAGVPGAGVPGAGVPGAGVPGAGVPGAGVPGAGVPGAGVPGAGVPGAGVPGAGVPGAGVPGAGVPGAGVPGAGVPGAGVPGAGVPGAGVPGAGVPGAGVPGAGVPGAGVPGAGVPGAGVPGAGVPGAGVPGAGVPGAGVPGAGVPGAGVPGAGVPGAGVPGAGVPGAGVPGAGVPGAGVPGAGVPGAGVPGAGVPGAGVPGAGVPGAGVPGAGVPGAGVPGAGVPGAGVPGAGVPGAGVPGAGVPGAGVPGAGVPGAGVPGAGVPGAGVPGAGVPGAGVPGAGVPGAGVPGAGVPGAGVPGAGVPGAGVPGAGVPGAGVPGAGVPGAGVPGAGVPGAGVPGAGVPGAGVPGAGVPGAGVPGAGVPGAGVPGAGVPGAGVPGAGVPGAGVPGAGVPGAGVPGAGVPGAGVPGAGVPGAGVPGAGVPGAGVPGAGVPGAGVPGAGVPGAGVPGAGVPGAGVPGAGVPGAGVPGAGVPGAGVPGAGVPGAGVPGAGVPGAGVPGAGVPGAGVPGAGVPGAGVPGAGVPGAGVPGAGVPGAGVPGAGVPGAGVPGAGVPGAGVPGAGVPGAGVPGAGVPGAGVPGAGVPGAGVPGAGVPGAGVPGAGVPGAGVPGAGVPGAGVPGAGVPGAGVPGAGVPGAGVPGAGVPGAGVPGAGVPGAGVPGAGVPGAGVPGAGVPGAGVPGAGVPGAGVPGAGCGGCGGCGGCGGCGGCGGCGGCGG", "values": [
      {"measurement": "Kd", "setting": "mouse serum albumin [12]", "value": 66.1, "unit": "nM"}
    ]},
    {"molecule": "ABDN-CP-DOX micelles (doxorubicin-conjugated ABDN-chimeric polypeptide) (designed binder, Self-assembled micelle; also called ABD-CP-DOX) LAEAKVLANRELDKYGVSDYYKNLINNAKTVEGVKALIDEILAALPVPGAGVPGAGVPGAGVPGAGVPGAGVPGAGVPGAGVPGAGVPGAGVPGAGVPGAGVPGAGVPGAGVPGAGVPGAGVPGAGVPGAGVPGAGVPGAGVPGAGVPGAGVPGAGVPGAGVPGAGVPGAGVPGAGVPGAGVPGAGVPGAGVPGAGVPGAGVPGAGVPGAGVPGAGVPGAGVPGAGVPGAGVPGAGVPGAGVPGAGVPGAGVPGAGVPGAGVPGAGVPGAGVPGAGVPGAGVPGAGVPGAGVPGAGVPGAGVPGAGVPGAGVPGAGVPGAGVPGAGVPGAGVPGAGVPGAGVPGAGVPGAGVPGAGVPGAGVPGAGVPGAGVPGAGVPGAGVPGAGVPGAGVPGAGVPGAGVPGAGVPGAGVPGAGVPGAGVPGAGVPGAGVPGAGVPGAGVPGAGVPGAGVPGAGVPGAGVPGAGVPGAGVPGAGVPGAGVPGAGVPGAGVPGAGVPGAGVPGAGVPGAGVPGAGVPGAGVPGAGVPGAGVPGAGVPGAGVPGAGVPGAGVPGAGVPGAGVPGAGVPGAGVPGAGVPGAGVPGAGVPGAGVPGAGVPGAGVPGAGVPGAGVPGAGVPGAGVPGAGVPGAGVPGAGVPGAGVPGAGVPGAGVPGAGVPGAGVPGAGVPGAGVPGAGVPGAGVPGAGVPGAGVPGAGVPGAGVPGAGVPGAGVPGAGVPGAGVPGAGVPGAGVPGAGVPGAGVPGAGVPGAGVPGAGVPGAGCGGCGGCGGCGGCGGCGGCGGCGG", "values": [
      {"measurement": "Kd", "setting": "mouse serum albumin [13]", "value": 318, "unit": "nM"}
    ]},
    {"molecule": "ABD-CP-PTX micelles (paclitaxel-conjugated ABD-chimeric polypeptide) (designed binder, Self-assembled micelle; also called ABDN-CP-PTX) LAEAKVLANRELDKYGVSDYYKNLINNAKTVEGVKALIDEILAALPVPGAGVPGAGVPGAGVPGAGVPGAGVPGAGVPGAGVPGAGVPGAGVPGAGVPGAGVPGAGVPGAGVPGAGVPGAGVPGAGVPGAGVPGAGVPGAGVPGAGVPGAGVPGAGVPGAGVPGAGVPGAGVPGAGVPGAGVPGAGVPGAGVPGAGVPGAGVPGAGVPGAGVPGAGVPGAGVPGAGVPGAGVPGAGVPGAGVPGAGVPGAGVPGAGVPGAGVPGAGVPGAGVPGAGVPGAGVPGAGVPGAGVPGAGVPGAGVPGAGVPGAGVPGAGVPGAGVPGAGVPGAGVPGAGVPGAGVPGAGVPGAGVPGAGVPGAGVPGAGVPGAGVPGAGVPGAGVPGAGVPGAGVPGAGVPGAGVPGAGVPGAGVPGAGVPGAGVPGAGVPGAGVPGAGVPGAGVPGAGVPGAGVPGAGVPGAGVPGAGVPGAGVPGAGVPGAGVPGAGVPGAGVPGAGVPGAGVPGAGVPGAGVPGAGVPGAGVPGAGVPGAGVPGAGVPGAGVPGAGVPGAGVPGAGVPGAGVPGAGVPGAGVPGAGVPGAGVPGAGVPGAGVPGAGVPGAGVPGAGVPGAGVPGAGVPGAGVPGAGVPGAGVPGAGVPGAGVPGAGVPGAGVPGAGVPGAGVPGAGVPGAGVPGAGVPGAGVPGAGVPGAGVPGAGVPGAGVPGAGVPGAGVPGAGVPGAGVPGAGVPGAGVPGAGVPGAGVPGAGVPGAGVPGAGVPGAGCGGCGGCGGCGGCGGCGGCGGCGG", "values": [
      {"measurement": "Kd", "setting": "mouse serum albumin [14]", "value": 4.37, "unit": "nM"},
      {"measurement": "Kd", "setting": "human serum albumin [15]", "value": 5.58, "unit": "nM"}
    ]}
  ]
}
